Results as given in patent publication US10245299B2, “Autoassembling peptides for the treatment of pulmonary bulla” (3-D MATRIX, LTD., priority 2014, dated 2019).
Where no end group is shown, it is not given here.

Key:
Assay type in all cases: physicochemical
[1] = pH and appearance of 2.5% peptide solutions after adding 0.1 N NaOH
Method: To adjust the pH level of the peptide solutions by way of example, 0.1 N NaOH was added to 2 mL of 2.5% peptide solutions and their pH and appearance were measured.

[2] = Appearance of 1.5% peptide solutions with various salts at room temperature; conditions: for Appearance: KLD12 solution, room temperature
Method: The effect of salt ionic strength level on the properties of peptide solutions was evaluated to identify optimized salt ionic strength levels for the peptides as described herein. Increasing the salt ionic strength level of PuraMatrix® and other peptides may generally improve its function and mechanical strength for various clinical applications. To adjust the salt ionic strength of the peptide solutions by way of example, various salt buffer solutions including NaCl, KCl, MgCl2, CaCl2 and DPBS (10×) were added to 2 mL of 1.5% peptide solutions.

[3] = Gelation of peptide solutions after saline buffer treatment, time sweep; conditions: saline buffer (0.15 M of NaCl); IEIK13 1.5%, KLD12 1.5%, PuraMatrix® 2.5% solution
Method: The effect of salt ionic strength level surrounding peptide solution on the properties of peptide solutions was evaluated to identify the possibility of peptide gelation when the peptide solution is placed into the environment where salt ionic strength level is high. […] Without pH effect, the effect of saline treatment on gelation of peptide solutions were evaluated. […] This is because IEIK13 is much more sensitive to salt ionic strength levels. Fast gelation of IEIK13 at the salt ionic strength level similar to body fluid isotonic salt level may generally improve its function and gelation speed for various clinical applications. The results are shown in FIG. 19 for IEIK13, KLD12 and PuraMatrix® solutions. Time sweep tests were performed at 1 rad/sec and at 1 Pa with 20 mm plates and 500 μm gap distance. […]

In the case of KLDLKLDLKLDL [KLD12], the Appearance ([1]; 0.1N NaOH 0 μL/mL, conc. 2.5%, pH 2.1) is reported as “Clear, thick gel”, the Appearance ([1]; 0.1N NaOH 50 μL/mL, conc. 2.38%, pH 2.4) is reported as “Clear, thick gel” and the Appearance ([1]; 0.1N NaOH 100 μL/mL, conc. 2.27%, pH 2.6) is reported as “Clear, thick gel”. The Appearance ([1]; 0.1N NaOH 250 μL/mL, conc. 2.0%, pH 4.0) was “Slightly cloudy,”, the Appearance ([1]; 0.1N NaOH 300 μL/mL, conc. 1.92%, pH 4.7) was “Cloudy, brittle gel” and the Appearance ([1]; 0.1N NaOH 350 μL/mL, conc. 1.85%, pH 5.2) was “Cloudy, phase-”. For the same sequence, the “Peptide solution pH” value ([1]; 0.1N NaOH added in 2.5% solution 0 μL/mL, conc. 2.5%) was 2.1, the “Peptide solution pH” value ([1]; 0.1N NaOH added in 2.5% solution 50 μL/mL, conc. 2.38%) was 2.4 and the “Peptide solution pH” value ([1]; 0.1N NaOH added in 2.5% solution 100 μL/mL, conc. 2.27%) was 2.6. The “Peptide solution pH” value ([1]; 0.1N NaOH added in 2.5% solution 150 μL/mL, conc. 2.17%) was 2.9, the “Peptide solution pH” value ([1]; 0.1N NaOH added in 2.5% solution 200 μL/mL, conc. 2.08%) was 3.3 and the “Peptide solution pH” value ([1]; 0.1N NaOH added in 2.5% solution 225 μL/mL, conc. 2.04%) was 3.6. The “Peptide solution pH” value ([1]; 0.1N NaOH added in 2.5% solution 250 μL/mL, conc. 2.0%) was 4.0, the “Peptide solution pH” value ([1]; 0.1N NaOH added in 2.5% solution 300 μL/mL, conc. 1.92%) was 4.7 and the “Peptide solution pH” value ([1]; 0.1N NaOH added in 2.5% solution 350 μL/mL, conc. 1.85%) was 5.2. For the same sequence, the Appearance ([1]; pH 7.0) was “Cloudy, phase-”, the Appearance ([2]; conc. 1.3%, KCl 0.4 M, ionic strength 0.4 M) was “Cloudy, phase-separated” and the Appearance ([2]; conc. 1.3%, NaCl 0.4 M, ionic strength 0.4 M) was “Cloudy, phase-separated”. For the same sequence, the Appearance ([2]; conc. 1.32%, KCl 0.35 M, ionic strength 0.35 M) was “Slightly cloudy, brittle gel”, the Appearance ([2]; conc. 1.32%, NaCl 0.35 M, ionic strength 0.35 M) was “Slightly cloudy, brittle gel” and the Appearance ([2]; conc. 1.35%, KCl 0.3 M, ionic strength 0.3 M) was “Slightly cloudy, thick, stiffer gel”. The Appearance ([2]; conc. 1.35%, NaCl 0.3 M, ionic strength 0.3 M) was “Slightly cloudy, thick, stiffer gel”, the Appearance ([2]; conc. 1.38%, KCl 0.25 M, ionic strength 0.25 M) was “Clear, thick, stiffer gel” and the Appearance ([2]; conc. 1.38%, NaCl 0.25 M, ionic strength 0.25 M) was “Clear, thick, stiffer gel”. The Appearance ([2]; conc. 1.4%, KCl 0.2 M, ionic strength 0.2 M) was “Clear, thick, stiffer gel”, the Appearance ([2]; conc. 1.4%, NaCl 0.2 M, ionic strength 0.2 M) was “Clear, thick, stiffer gel” and the Appearance ([2]; conc. 1.42%, CaCl2 0.167 M, ionic strength 0.5 M) was “Cloudy, phase-separated”. The Appearance ([2]; conc. 1.42%, MgCl2 0.167 M, ionic strength 0.5 M) was “Cloudy, phase-separated”, the Appearance ([2]; conc. 1.43%, CaCl2 0.133 M, ionic strength 0.4 M) was “Slightly cloudy, thick, stiffer gel” and the Appearance ([2]; conc. 1.43%, CaCl2 0.15 M, ionic strength 0.45 M) was “Slightly cloudy, brittle gel”. The Appearance ([2]; conc. 1.43%, KCl 0.15 M, ionic strength 0.15 M) was “Clear, thick, stiffer gel”, the Appearance ([2]; conc. 1.43%, MgCl2 0.133 M, ionic strength 0.4 M) was “Slightly cloudy, thick, stiffer gel” and the Appearance ([2]; conc. 1.43%, MgCl2 0.15 M, ionic strength 0.45 M) was “Slightly cloudy, brittle gel”. For the same sequence, the Appearance ([2]; conc. 1.43%, NaCl 0.15 M, ionic strength 0.15 M) was “Clear, thick, stiffer gel”, the Appearance ([2]; conc. 1.44%, CaCl2 0.117 M, ionic strength 0.35 M) was “Clear, thick, stiffer gel” and the Appearance ([2]; conc. 1.44%, MgCl2 0.117 M, ionic strength 0.35 M) was “Clear, thick, stiffer gel”. For the same sequence, the Appearance ([2]; conc. 1.45%, CaCl2 0.1 M, ionic strength 0.3 M) was “Clear, thick, stiffer gel”, the Appearance ([2]; conc. 1.45%, KCl 0.1 M, ionic strength 0.1 M) was “Clear, thick, stiffer gel” and the Appearance ([2]; conc. 1.45%, MgCl2 0.1 M, ionic strength 0.3 M) was “Clear, thick, stiffer gel”. For the same sequence, the Appearance ([2]; conc. 1.45%, NaCl 0.1 M, ionic strength 0.1 M) was “Clear, thick, stiffer gel”, the Appearance ([2]; conc. 1.46%, CaCl2 0.083 M, ionic strength 0.25 M) was “Clear, thick, stiffer gel” and the Appearance ([2]; conc. 1.46%, MgCl2 0.083 M, ionic strength 0.25 M) was “Clear, thick, stiffer gel”. The Appearance ([2]; conc. 1.47%, CaCl2 0.067 M, ionic strength 0.2 M) was “Clear, thick, stiffer gel”, the Appearance ([2]; conc. 1.47%, MgCl2 0.067 M, ionic strength 0.2 M) was “Clear, thick, stiffer gel” and the Appearance ([2]; conc. 1.48%, CaCl2 0.05 M, ionic strength 0.15 M) was “Clear, thick, stiffer gel”. The Appearance ([2]; conc. 1.48%, KCl 0.05 M, ionic strength 0.5 M) was “Clear, thick, stiffer gel”, the Appearance ([2]; conc. 1.48%, MgCl2 0.05 M, ionic strength 0.15 M) was “Clear, thick, stiffer gel” and the Appearance ([2]; conc. 1.48%, NaCl 0.05 M, ionic strength 0.5 M) was “Clear, thick, stiffer gel”. For the same sequence, the Appearance ([2]; conc. 1.5%, CaCl2 0 M, ionic strength 0 M) was “Clear, thick gel”, the Appearance ([2]; conc. 1.5%, KCl 0 M, ionic strength 0 M) was “Clear, thick gel” and the Appearance ([2]; conc. 1.5%, MgCl2 0 M, ionic strength 0 M) was “Clear, thick gel”. For the same sequence, the Appearance ([2]; conc. 1.5%, NaCl 0 M, ionic strength 0 M) was “Clear, thick gel”, the “salt ionic strength increase that did not change the clear color of the solution (apparent stiffness increased)” value ([2]; depending on different salts, 1.5% peptide solutions) was 0.25˜0.35 M and the “gelation after saline buffer treatment” value [3] was “no or negligible gelation”.
